{"source": "paper PMC4945409", "target": "wild-type KDPG aldolase scaffold (1wa3)", "assay": "SEC", "data": [{"substance": "wild-type KDPG aldolase scaffold (1wa3) (enzyme)", "values": [{"measurement": "stoichiometry N", "result": 3}]}]}
